Results as given in patent US20250122304A1, “PRE-TARGETING” (Precirix N.V., priority 2022, published 2025).

T1: human fibroblast activation protein (FAP) (human, UniProt Q12884 26-760)
T1 construct: also called human FAP; hFAP
T1 sequence: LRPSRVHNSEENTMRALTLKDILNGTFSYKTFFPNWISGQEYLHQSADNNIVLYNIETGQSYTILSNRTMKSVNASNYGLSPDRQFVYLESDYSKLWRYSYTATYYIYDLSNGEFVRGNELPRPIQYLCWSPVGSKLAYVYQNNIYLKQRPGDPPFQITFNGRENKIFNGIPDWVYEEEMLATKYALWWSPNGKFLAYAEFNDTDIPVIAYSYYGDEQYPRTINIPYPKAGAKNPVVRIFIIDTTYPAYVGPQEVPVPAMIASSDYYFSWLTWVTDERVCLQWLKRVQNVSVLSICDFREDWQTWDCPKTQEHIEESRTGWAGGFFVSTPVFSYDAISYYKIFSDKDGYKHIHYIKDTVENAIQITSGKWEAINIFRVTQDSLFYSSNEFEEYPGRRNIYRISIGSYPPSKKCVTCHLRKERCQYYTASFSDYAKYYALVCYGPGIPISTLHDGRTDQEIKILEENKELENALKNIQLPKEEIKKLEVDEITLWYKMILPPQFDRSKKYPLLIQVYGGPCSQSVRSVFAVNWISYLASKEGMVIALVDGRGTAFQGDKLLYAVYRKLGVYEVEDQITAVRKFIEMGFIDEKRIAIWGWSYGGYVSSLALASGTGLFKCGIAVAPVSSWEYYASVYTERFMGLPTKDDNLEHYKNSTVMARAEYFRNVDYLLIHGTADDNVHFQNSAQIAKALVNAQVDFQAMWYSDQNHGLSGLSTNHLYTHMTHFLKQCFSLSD

T2: human FAP (Homo sapiens, UniProt Q12884)
T2 sequence (Q12884 1-760): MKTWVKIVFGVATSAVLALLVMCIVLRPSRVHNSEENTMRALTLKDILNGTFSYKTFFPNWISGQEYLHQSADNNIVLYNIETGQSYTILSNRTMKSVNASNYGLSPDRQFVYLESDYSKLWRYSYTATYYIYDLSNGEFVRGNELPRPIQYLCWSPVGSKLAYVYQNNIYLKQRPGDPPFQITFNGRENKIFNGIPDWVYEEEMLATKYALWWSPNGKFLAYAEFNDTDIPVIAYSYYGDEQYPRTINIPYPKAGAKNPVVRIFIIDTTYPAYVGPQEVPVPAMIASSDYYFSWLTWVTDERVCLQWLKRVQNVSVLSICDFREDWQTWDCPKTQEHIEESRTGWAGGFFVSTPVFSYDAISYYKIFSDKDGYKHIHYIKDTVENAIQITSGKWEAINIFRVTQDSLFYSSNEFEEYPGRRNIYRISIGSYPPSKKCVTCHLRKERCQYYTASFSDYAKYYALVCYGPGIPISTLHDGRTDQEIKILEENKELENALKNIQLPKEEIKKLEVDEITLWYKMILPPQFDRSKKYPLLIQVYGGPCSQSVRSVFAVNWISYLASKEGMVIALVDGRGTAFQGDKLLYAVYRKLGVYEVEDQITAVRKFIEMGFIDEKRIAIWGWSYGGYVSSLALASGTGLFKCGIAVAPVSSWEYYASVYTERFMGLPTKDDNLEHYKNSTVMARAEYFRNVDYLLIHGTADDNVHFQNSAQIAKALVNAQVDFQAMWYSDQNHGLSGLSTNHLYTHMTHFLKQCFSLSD

B1: VHH1 (VHH)
VHH: DVQLVESGGGLVQPGGSLRLSCVASGRLSSSNSMAWYRQVPGKRRELVAGITGGGETNYADFVGGRFTISRDNAKNGLYLQLNGLKPEDTAAYYCNFWPPLINYWGQGTQVTVSS
notes: Anti-FAP VHH, tested before TCO conjugation; also called VHH VHH1; unconjugated VHH1
B2: VHH7 (VHH)
VHH: QVQLQESGGGLVQAGGSLRLSCTASGTFSGRNAMAWYRQAPGKRRELVAGIRSDDSTNYVDSVKGRFTISRDNAKNTVYLQMNSLRPEDTAVYYCNLWPPVIGAGFGSWGQGTQVTVSS
notes: Anti-FAP VHH, tested before TCO conjugation; also called unconjugated VHH7
B3: VHH8 (VHH)
VHH: QVQLQESGGGTVQPGGSLRLSCAASGISVSIASMAWYRQAPGKQRELVAGIISGGSTNYADSVKGRFTISRDNAKKVVLLQMNSLKPEDTAVYYCNTYPPFVGPGATATWGQGTQVTVSS
notes: Anti-FAP VHH, tested before TCO conjugation; also called unconjugated VHH8
B4: VHH9 (VHH)
VHH: QVQLQESGGGLVQSGGSLRLSCVASGSISSINAMGWYRQAPGNKREWVAGITSGGSTNYADAVLGRFSIFRDNPKNTVYLQMNSLKPEDTAVYYCNTWPPSTFGSWGQGTQVTVSS
notes: Anti-FAP VHH, tested before TCO conjugation; also called unconjugated VHH9
B5: VHH6 (VHH)
VHH: DVQLVESGGGLVQAGGSLRLSCAVSGSISSANSMGWYRQAPGKQRDVVAGLTTGGRSHYADSVKGRFTISRDNAKNTVYLQMNSLKAEDTAVYYCNLWPPVQGYWGQGTQVTVSS
notes: Anti-FAP VHH, tested before TCO conjugation; also called unconjugated VHH6
B6: TCO-VHH9: TCO conjugated VHH9 (FAP binding) (conjugate)
VHH: QVQLQESGGGLVQSGGSLRLSCVASGSISSINAMGWYRQAPGNKREWVAGITSGGSTNYADAVLGRFSIFRDNPKNTVYLQMNSLKPEDTAVYYCNTWPPSTFGSWGQGTQVTVSSAAAYPYDVPDYGSHHHHHH
modifications: cyclised or stapled
B7: VHH8: VHH, target FAP, SEQ ID NO 91 (protein)
VHH: QVQLQESGGGTVQPGGSLRLSCAASGISVSIASMAWYRQAPGKQRELVAGIISGGSTNYADSVKGRFTISRDNAKKVVLLQMNSLKPEDTAVYYCNTYPPFVGPGATATWGQGTQVTVSSAAAYPYDVPDYGSHHHHHH
B8: VHH1: VHH, target FAP, SEQ ID NO 4 (protein)
VHH: B1 VHH
modifications: VHH1
B9: VHH6: VHH, target FAP, SEQ ID NO 89 (protein)
VHH: B5 VHH
B10: VHH7: VHH, target FAP, SEQ ID NO 90 (protein)
VHH: QVQLQESGGGLVQAGGSLRLSCTASGTFSGRNAMAWYRQAPGKRRELVAGIRSDDSTNYVDSVKGRFTISRDNAKNTVYLQMNSLRPEDTAVYYCNLWPPVIGAGFGSWGQGTQVTVSSAAAYPYDVPDYGSHHHHHH
B11: VHH9: VHH, target FAP, SEQ ID NO 92 (protein)
VHH: B6 VHH
B12: TCO-VHH1: VHH1, functionalized with transcyclooctene (TCO) (conjugate)
VHH: B1 VHH
modifications: cyclised or stapled
B13: TCO-VHH7 (conjugate)
VHH: B10 VHH
modifications: cyclised or stapled
B14: TCO-VHH8 (conjugate)
VHH: B7 VHH
modifications: cyclised or stapled

Legend:
[1] = target: T1, human fibroblast activation protein …; assay: BLI (Octet), kinetics to human FAP, pre TCO conjugation
Method: Using the BLI technology on Octet system the binding kinetics towards human FAP were determined for each of the five VHHs pre- and post-TCO conjugation.

human FAP [2] = target: T2, human FAP; assay: BLI click reaction with Tz-R3B23 on TCO-VHHs bound to target, span (Example 7, Table 18); conditions: for Span: signal difference vs assay buffer
Method: Next, Octet Streptavidin (SA) Biosensors were coated with 5 μg/mL biotinylated human FAP in assay buffer (HBS+0.5% BSA+0.1% Tween20) for 5 minutes. The sensors were then dipped in wells containing a 5 nM solution of the different VHHs (both TCO conjugated and unconjugated as control) for 20 minutes (association step) and further transferred to the assay buffer (dissociation step) for 30 minutes. After the dissociation phase, that simulates the lag time, the sensors were transferred to either a well containing 50 nM of a tetrazine-coupled, non-FAP binding R3B23 (Tz-R3B23) or to a well containing assay buffer as a control. This reaction was allowed to proceed for 20 minutes (experiment 1) or 30 minutes (experiment 2) after which the sensors were washed for 30 minutes in assay buffer. In the second experiment the TCO-VHHs were measured in duplicate (referred to as assay 1 and 2 of ‘experiment 2’ in the table below). Using the epitope binning function of ‘Octet Analysis Software’ we then determined the difference in signal between the VHHs incubated with Tz-R3B23 and the VHHs incubated with assay buffer. […] The span of unconjugated VHHs was considered as noise.

human FAP [3] = target: T2, human FAP; assay: BLI (Octet) binding kinetics pre- and post-TCO conjugation (Example 7, Table 17)
Method: Five VHHs binding the target (human FAP) with different dissociation rate constants were conjugated to TCO-NHS. Using the BLI technology on Octet system the binding kinetics towards human FAP were determined for each of the five VHHs pre- and post-TCO conjugation.

[4] = Experiment 1, click reaction with 50 nM Tz-R3B23 for 20 minutes
[5] = Experiment 2, 1st assay, click reaction with 50 nM Tz-R3B23 for 30 minutes
[6] = Experiment 2, 2nd assay, click reaction with 50 nM Tz-R3B23 for 30 minutes

Molecule | Kd [1] [nM] | koff [1] [s⁻¹] | kon [1] [M⁻¹ s⁻¹] | Span (human FAP [2]; [4]) | Span (human FAP [2]; [5]) | koff (human FAP [3]; Post conjugation (TCO)) [s⁻¹] | kon (human FAP [3]; Post conjugation (TCO)) [M⁻¹ s⁻¹] | koff (human FAP [3]; Pre conjugation (TCO)) [s⁻¹] | kon (human FAP [3]; Pre conjugation (TCO)) [M⁻¹ s⁻¹] | other results
B1 | 0.0482 | 8.52e-05 | 1.77e+06 |  |  |  |  |  |  | 
B2 | 0.0819 | 0.000197 | 2.4e+06 |  |  |  |  |  |  | 
B3 | 0.672 | 0.000679 | 1.01e+06 |  |  |  |  |  |  | 
B4 | 0.453 | 0.0018 | 3.98e+06 |  |  |  |  |  |  | 
B5 | 0.0551 | 0.000188 | 3.41e+06 |  |  |  |  |  |  | 
B6 |  |  |  | 0.0015 | 0.0091 |  |  |  |  | Span (human FAP [2]; [6]): 0.0113; click reaction (span versus noise value) (human FAP [2]; experiment 1 (20 minutes Tz-R3B23)): no click reaction took place; click reaction (span versus noise value) (human FAP [2]; experiment 2 (30 minutes Tz-R3B23), both assays): just above the noise value
B7 |  |  |  | 0.0096 | 0.0028 | 0.000559 | 833000 | 0.000679 | 1.01e+06 | span of unconjugated VHHs (noise) (human FAP [2]; both experiments): the highest
B8 |  |  |  | 0.0089 | 0.0004 | 4.99e-05 | 694000 | 8.52e-05 | 1.77e+06 | 
B9 |  |  |  | 0.0021 | 0.0017 | 0.000157 | 1.07e+06 | 0.000188 | 3.41e+06 | 
B10 |  |  |  | 0.0082 | 0.0018 | 0.000123 | 746000 | 0.000197 | 2.4e+06 | 
B11 |  |  |  | 0.0040 | −0.0008 | 0.0012 | 1.26e+06 | 0.0018 | 3.98e+06 | 
B12 |  |  |  | 0.0237 | 0.0334 |  |  |  |  | Span (human FAP [2]; [6]): 0.0257
B13 |  |  |  | 0.0145 | 0.0186 |  |  |  |  | Span (human FAP [2]; [6]): 0.0230
B14 |  |  |  | 0.0224 | 0.0218 |  |  |  |  | Span (human FAP [2]; [6]): 0.0341
